The text below walks through data of patent US20200325208A1 (IMMUNOWAKE, published 2020).

Read-outs that look alike come from different tables or passages of the source.

B1: Nivolumab (e.g., Opdivo®) (antibody, human IgG4 S228P, kappa, V domains shown)
VH: QVQLVESGGGVVQPGRSLRLDCKASGITFSNSGMHWVRQAPGKGLEWVAVIWYDGSKRYYADSVKGRFTISRDNSKNTLFLQMNSLRAEDTAVYYCATNDDYWGQGTLVTVSS
VL: EIVLTQSPATLSLSPGERATLSCRASQSVSSYLAWYQQKPGQAPRLLIYDASNRATGIPARFSGSGSGTDFTLTISSLEPEDFAVYYCQQSSNWPRTFGQGTKVEIKR
notes: Parental full-length IgG4 antibody; also called anti-PD-1 antibody
B2: Durvalumab (e.g., IMFINZI™) (antibody, human IgG1, kappa, V domains shown)
VH: EVQLVESGGGLVQPGGSLRLSCAASGFTFSRYWMSWVRQAPGKGLEWVANIKQDGSEKYYVDSVKGRFTISRDNAKNSLYLQMNSLRAEDTAVYYCAREGGWFGELAFDYWGQGTLVTVSS
VL: EIVLTQSPGTLSLSPGERATLSCRASQRVSSSYLAWYQQKPGQAPRLLIYDASSRATGIPDRFSGSGSGTDFTLTISRLEPEDFAVYYCQQYGSLPWTFGQGTKVEIKR
notes: Parental full-length IgG1 kappa; also called MEDI4736; anti-PD-L1 antibody
B3: Pembrolizumab (e.g., Keytruda®) (antibody, human IgG4 S228P, kappa, V domains shown)
VH: QVQLVQSGVEVKKPGASVKVSCKASGYTFTNYYMYWVRQAPGQGLEWMGGINPSNGGTNFNEKFKNRVTLTTDSSTTTAYMELKSLQFDDTAVYYCARRDYRFDMGFDYWGQGTTVTVSS
VL: EIVLTQSPATLSLSPGERATLSCRASKGVSTSGYSYLHWYQQKPGQAPRLLIYLASYLESGVPARFSGSGSGTDFTLTISSLEPEDFAVYYCQHSRDLPLTFGGGTKVEIKR
notes: Parental full-length IgG4 antibody, used as the positive anti-PD-1 control; also called anti-PD-1 antibody
B4: Ixekizumab (e.g., Taltz®) (antibody, human IgG4 S228P, kappa, V domains shown)
VH: QVQLVQSGAEVKKPGSSVKVSCKASGYSFTDYHIHWVRQAPGQGLEWMGVINPMYGTTDYNQRFKGRVTITADESTSTAYMELSSLRSEDTAVYYCARYDYFTGTGVYWGQGTLVTVSS
VL: DIVMTQTPLSLSVTPGQPASISCRSSRSLVHSRGNTYLHWYLQKPGQSPQLLIYKVSNRFIGVPDRFSGSGSGTDFTLKISRVEAEDVGVYYCSQSTHLPFTFGQGTKLEIKR
notes: Parental full-length IgG4 antibody; also called anti-IL-17A antibody
B5: Human VEGF121/VEGF-A protein (human VEGF 121 isoform) with 6-His tag (ligand)
chain: APMAEGGGQNHHEVVKFMDVYQRSYCHPIETLVDIFQEYPDEIEYIFKPSCVPLMRCGGCCNDEGLECVPTEESNITMQIMRIKPHQGQHIGEMSFLQHNKCECRPKKDRARQEKCDKPRR
notes: range 27-147; Bought from Sino Biological; captured on the ELISA plate through an anti-His-tag antibody; not shown: 6-His tag
B6: aPD-L1/LC-GS6-VEGFR-mIgG1 (other)
heavy: EVQLVESGGGLVQPGGSLRLSCAASGFTFSRYWMSWVRQAPGKGLEWVANIKQDGSEKYYVDSVKGRFTISRDNAKNSLYLQMNSLRAEDTAVYYCAREGGWFGELAFDYWGQGTLVTVSSASTKGPSVFPLAPSSKSTSGGTAALGCLVKDYFPEPVTVSWNSGALTSGVHTFPAVLQSSGLYSLSSVVTVPSSSLGTQTYICNVNHKPSNTKVDKRVEPKSCDKTHTCPPCPAPEFEGGPSVFLFPPKPKDTLMISRTPEVTCVVVDVSHEDPEVKFNWYVDGVEVHNAKTKPREEQYNSTYRVVSVLTVLHQDWLNGKEYKCKVSNKALPASIEKTISKAKGQPREPQVYTLPPSRDELTKNQVSLTCLVKGFYPSDIAVEWESNGQPENNYKTTPPVLDSDGSFFLYSKLTVDKSRWQQGNVFSCSVMHEALHNHYTQKSLSLSPGK
light: EIVLTQSPGTLSLSPGERATLSCRASQRVSSSYLAWYQQKPGQAPRLLIYDASSRATGIPDRFSGSGSGTDFTLTISRLEPEDFAVYYCQQYGSLPWTFGQGTKVEIKRTVAAPSVFIFPPSDEQLKSGTASVVCLLNNFYPREAKVQWKVDNALQSGNSQESVTEQDSKDSTYSLSSTLTLSKADYEKHKVYACEVTHQGLSSPVTKSFNRGECTGGGGSGGGGSGGGGSGGGGSGGGGSGGGGSTGSDTGRPFVEMYSEIPEIIHMTEGRELVIPCRVTSPNITVTLKKFPLDTLIPDGKRIIWDSRKGFIISNATYKEIGLLTCEATVNGHLYKTNYLTHRQTNTIIDVVLSPSHGIELSVGEKLVLNCTARTELNVGIDFNWEYPSSKHQHKKLVLSPVNRDLKTQSGSEMKKFLSTLTIDGVTRSDQGLYTCAASSGLMTKKNSTFVRVHEK
notes: Durvalumab (Fc-mutated IgG1) with Flt1d2-Flk1d3 fused to the C-terminus of the light chains through the GS6 linker; Expressed in CHO cells

Assay [1] deals with B5. The experiment in a line: ELISA, antigen captured by anti-His antibody on plate, HRP anti-IgG Fc detection.
Description: (§1) 96-well ELISA plates were coated with 100 μl His-tag antibody (capture antibody, 0.4 μg/ml) at room temperature (RT) overnight. The coated plates were washed with washing buffer (pH 7.4 PBS with 0.1% Tween 20) three times, and blocked with 3% BSA in washing buffer for 2 hours, at RT. […] After washing three times, VEGFR-antibody light chain fusion proteins of various concentrations in washing buffer containing 3% BSA were added to the coated plates, and let incubation for 2 hours at RT. Aflibercept (VEGFR-Fc fusion protein) and the corresponding parental full-length antibody were included as positive controls. […] After washing three times, HRP conjugated anti-gG Fc antibody (secondary antibody) was added (1:6000 dilution with 3% BSA in washing buffer), and incubated for 2 hours at RT. After washing four times, 100 μl HRP substrate was added to each well. After developing for 20 minutes, stop buffer was added to each well. Optical density (OD) of each well was measured immediately using a microplate reader at 450 nm. EC₅, was calculated if OD>2.0; otherwise, EC₅₀ was not calculated.
The target of another assay is T1, Human IL-17A protein (human, UniProt Q16552 24-155).
T1 construct: Purchased
T1 sequence (Q16552 24-155 limits assumed): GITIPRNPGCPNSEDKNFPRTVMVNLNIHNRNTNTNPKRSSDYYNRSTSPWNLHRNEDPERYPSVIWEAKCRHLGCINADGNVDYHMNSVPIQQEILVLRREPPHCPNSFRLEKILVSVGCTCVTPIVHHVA
Described as above.

Assay [2] has as its target B5. The description is as above. The source holds these as a separate data set.
Description: as §1
The target of the next assay is T2, Human PD-1 protein (human, UniProt Q15116 25-167, limits assumed).
T2 construct: Purchased
T2 sequence (Q15116 25-167 limits assumed): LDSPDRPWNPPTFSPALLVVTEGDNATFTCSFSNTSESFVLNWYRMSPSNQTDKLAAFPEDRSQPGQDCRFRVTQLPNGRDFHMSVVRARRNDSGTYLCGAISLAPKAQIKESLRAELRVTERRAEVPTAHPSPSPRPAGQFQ
The description is as above.

Assay [3] addresses T3, tPD-L1/LC-GS6-VEGFR-nIgG1 (Homo sapiens (Human), UniProt P0DOX5 2-449 = IgG part).
T3 construct: Atezolizumab (de-glycosylated IgG1) with Flt1d2-Flk1d3 fused to the C-terminus of the light chains through the GS6 linker; Expressed in CHO cells
The experiment in a line: ELISA. For orientation: In an ELISA, binding on a coated surface is turned into a signal by an enzyme label.

The target of a further assay is T4, EGFR/LC-GS6-VEGFR-IgG1.
T4 construct: Cetuximab IgG1 with Flt1d2-Flk1d3 fused to the C-terminus of the light chains through the GS6 linker; Expressed in CHO cells
The experiment in a line: ELISA.

In the next assay the target is TNFα/LC-GS6-VEGFR-IgG1 (Homo sapiens (Human), UniProt P0DOX5 2-449 = IgG part). The experiment in a line: ELISA.

Description for Human IL-17A protein: as §1
Description for Human PD-1 protein: as §1

B1: the binding result (in assay [1]; with Human IL-17A protein) was “no binding” throughout.
B2: the binding result in assay [2] is recorded as “no binding”.
On to B3, for which the binding result (in assay [1]; with Human IL-17A protein) was “no binding” each time.
For orientation: EC50 means the concentration that produces a half-maximal response. Read a high EC50 as a need for much substance. B4: the binding result (in assay [1]; with Human PD-1 protein) was “no binding” in each case. It took 1.1 nM to reach a half-maximal effect in the assay with Human IL-17A protein (EC50).
On to B5, for which the binding result (in assay [3]; with EGFR/LC-GS6-VEGFR-IgG1; with TNFα/LC-GS6-VEGFR-IgG1) was “binds” each time.
B6: a half-maximal response in assay [2] (EC50) required 34.5 nM.
